Results as given in patent US20050106100.

Key:
Ac-PLG-LYV-Ahxh-Ac[C14] = biological target: T1, Ac-PLG-LYV-Ahxh-Ac[C14]
T1 chain: PLGLYV

Ac-PLG˜LYQ-Ahxh-Ac[C14] = biological target: T2, Ac-PLG˜LYQ-Ahxh-Ac[C14] (not fully specified)
T2 chain: PLGLYQ

Ac-PLG˜LWA-Ahxh-Ac[C14] = biological target: T3, Ac-PLG˜LWA-Ahxh-Ac[C14] (not fully specified)
T3 chain: PLGLWA

[1] = biological target: T4, Ac-DAla-PRG˜Ile-LA-Ahxh-Hynic (not fully specified)
T4 chain: APRGILA

[2] = biological target: T5, Ac-P-Hcit-G˜Hphe-SA-Ahxh-Hynic (not fully specified)
T5 chain: PXGXSA

[3] = biological target: T6, Ac-Oic-LG˜LL-Ahxh-Ac[C14] (not fully specified)
T6 chain: XLGLL

Ac-PLG˜LRL-Ahxh-Hynic = biological target: T7, Ac-PLG˜LRL-Ahxh-Hynic (not fully specified)
T7 chain: PLGLRL

[4] = biological target: T8, Ac-P-Cit-Hse˜Hphe-SA-Ahxh-Hynic (not fully specified)
T8 chain: PXXXSA

[5] = biological target: T9, Ac-PL-NLys˜S(OBn)-LL-Ahxh-Ac[C14] (not fully specified)
T9 chain: PLXSLL

[6] = biological target: T10, Ac-PLG˜L-Cha-Ahxh-Ac[C14] (not fully specified)
T10 chain: PLGLX

[7] = biological target: T11, Ac-PLG˜Hphe-YL-Ambh-Hynic
T11 chain: PLGXYL

Ac-VRW˜LLA-Ahxh-Hynic = biological target: T12, Ac-VRW˜LLA-Ahxh-Hynic
T12 chain: VRWLLA

[8] = biological target: T13, Ac-PLG˜Hphe-YLA-Ahxh-Hynic
T13 chain: PLGXYLA

[9] = biological target: T14, Ac-NLys-PLG˜LL-Ahxh-Hynic (not fully specified)
T14 chain: XPLGLL

[10] = biological target: T15, Ac-POG˜Hphe-LTR-Ahxh-Ac[C14]
T15 chain: PXGXLTR

[11] = biological target: T16, Ac-P-Cit-Abu˜LTA-Ahxh-Hynic (not fully specified)
T16 chain: PXXLTA

[12] = biological target: T17, Ac-NGlu-PLG˜Hphe-YL-Ahxh-Ac[C14] (not fully specified)
T17 chain: XPLGXYL

Ac-PLG˜LYL-Ahxh-Hynic = biological target: T18, Ac-PLG˜LYL-Ahxh-Hynic (not fully specified)
T18 chain: PLGLYL

[13] = biological target: T19, Ac-PLG˜L-Pya-L-Ahxh-Ac[C14] (not fully specified)
T19 chain: PLGLXL

[14] = biological target: T20, Ac-PL-NLys˜LL-Ahxh-Ac[C14] (not fully specified)
T20 chain: PLXLL

Ac-PRR˜Cha-TA-Ambh-Hynic = biological target: T21, Ac-PRR˜Cha-TA-Ambh-Hynic
T21 chain: PRRXTA

[15] = biological target: T22, Hynic-fff-Ahx-PLG˜Hphe-OLEE-OH
T22 chain: FFFXPLGXXLEE

Ac-VRW˜LTA-Ahxh-Hynic = biological target: T23, Ac-VRW˜LTA-Ahxh-Hynic (not fully specified)
T23 chain: VRWLTA

Ac-PRG˜LLT-Ahxh-Hynic = biological target: T24, Ac-PRG˜LLT-Ahxh-Hynic
T24 chain: PRGLLT

[16] = biological target: T25, Ac-P-Cha-G˜Smc-HA-Ahxh-Hynic (not fully specified)
T25 chain: PXGXHA

Ac-PLG˜LL-Ahxh-Hynic = biological target: T26, Ac-PLG˜LL-Ahxh-Hynic
T26 chain: PLGLL

[17] = biological target: T27, Ac-PLG˜Cit-LA-Ahxh-Ac[C14] (not fully specified)
T27 chain: PLGXLA

[18] = biological target: T28, Ac-PLG˜Hphe-RLT-Ahxh-Hynic
T28 chain: PLGXRLT

[19] = biological target: T29, Ac-PLG˜Hphe-OLR-Ahxh-Hynic
T29 chain: PLGXXLR

[20] = biological target: T30, Ac-P-Cit-G˜S(OBn)-LA-Ahxh-Ac[C14] (not fully specified)
T30 chain: PXGSLA

Ac-PLG˜LYT-Ahxh-Ac[C14] = biological target: T31, Ac-PLG˜LYT-Ahxh-Ac[C14] (not fully specified)
T31 chain: PLGLYT

Ac-PHG˜Hphe-L-Ahxh-Hynic = biological target: T32, Ac-PHG˜Hphe-L-Ahxh-Hynic (not fully specified)
T32 chain: PHGXL

Ac-PLG˜LL-Ahxh-Ac[C14] = biological target: T33, Ac-PLG˜LL-Ahxh-Ac[C14] (not fully specified)
T33 chain: PLGLL

[21] = biological target: T34, Ac-PLG˜Ahp-OL-Ahxh-Ac[C14] (not fully specified)
T34 chain: PLGXXL

Ac-LRY˜Cha-TA-Ahxh-Hynic = biological target: T35, Ac-LRY˜Cha-TA-Ahxh-Hynic (not fully specified)
T35 chain: LRYXTA

Ac-PLG˜LYT-Ahxh-Hynic = biological target: T36, Ac-PLG˜LYT-Ahxh-Hynic (not fully specified)
T36 chain: PLGLYT

[22] = biological target: T37, Ac-PLG˜Hphe-R-Ahxh-Ac[C14] (not fully specified)
T37 chain: PLGXR

[23] = biological target: T38, Ac-P-Cit-G˜Abu-LA-Ahxh-Hynic (not fully specified)
T38 chain: PXGXLA

Ac-POG˜Hphe-L-Hynic = biological target: T39, Ac-POG˜Hphe-L-Hynic
T39 chain: PXGXL

Ac-PRQ˜IT-Ahxh-Hynic = biological target: T40, Ac-PRQ˜IT-Ahxh-Hynic
T40 chain: PRQIT

[24] = biological target: T41, NLys-PLG˜Hphe-YL-Ambh-Hynic
T41 chain: XPLGXYL

Ac-POG˜Hphe-L-Ambh-Hynic = biological target: T42, Ac-POG˜Hphe-L-Ambh-Hynic
T42 chain: PXGXL

[25] = biological target: T43, Ac-POG˜Hphe-LA-Ahxh-Hynic
T43 chain: PXGXLA

[26] = biological target: T44, Ac-P-Cit-G˜Hphe-Cha-A-Ahxh-Ac[C14] (not fully specified)
T44 chain: PXGXXA

[27] = biological target: T45, Ac-PLG˜Hphe-OLEE-Ahx-Hynic
T45 chain: PLGXXLEE

Suc-PLG˜LYT-Ahxh-Hynic = biological target: T46, Suc-PLG˜LYT-Ahxh-Hynic
T46 chain: PLGLYT

[28] = biological target: T47, Ac-POG˜Hphe-LQ-Ahxh-Hynic
T47 chain: PXGXLQ

Ac-PLG˜LR-Ahxh-Hynic = biological target: T48, Ac-PLG˜LR-Ahxh-Hynic (not fully specified)
T48 chain: PLGLR

[29] = biological target: T49, Ac-P-Cha-G˜Hphe-Cit-L-Ahxh-Ac[C14] (not fully specified)
T49 chain: PXGXXL

[30] = biological target: T50, Ac-P-Cha-G˜LL-Ahxh-Ac[C14] (not fully specified)
T50 chain: PXGLL

[31] = biological target: T51, Ac-P-Cit-G˜Aib-LA-Ahxh-Hynic (not fully specified)
T51 chain: PXGXLA

B1: human MMP-9 (protein)
chain: MRTPRCGVPDLGRFQTFEGDLKWHHHNITYWIQNYSEDLPRAVIDDAFARAFALWSAVTPLTFTRVYSRDADIVIQFGVAEHGDGYPFDGKDGLLAHAFPPGPGIQGDAHFDDDELWSLGKGVVVPTRFGNADGAACHFPFIFEGRSYSACTTDGRSDGLPWCSTTANYDTDDRFGFCPSERLYTQDGNADGKPCQFPFIFQGQSYSACTTDGRSDGYRWCATTANYDRDKLFGFCPTRADSTVMGGNSAGELCVFPFTFLGKEYSTCTSEGRGDGRLWCATTSNFDSDKKWGFCPDQGYSLFLVAAHEFGHALGLDHSSVPEALMYPMYRFTEGPPLHKDDVNGIRHLYGPRPEPEPRPPTTTTPQPTAPPTVCPTGPPTVHPSERPTAGPTGPPSAGPTGPPTAGPSTATTVPLSPVDDACNVNIFDAIAEIGNQLYLFKDGKYWRFSEGRGSRPQGPFLIADKWPALPRKLDSVFEERLSKKLFFFSGRQVWVYTGASVLGPRRLDKLGLGADVAQVTGALRSGRGKMLLFSGRRLWRFDVKAQMVDPRSASEVDRMFPGVPLDTHDVFQYREKAYFCQDRFYWRVSSRSELNQVDQVGYVTYDILQCPED
Ac-PLG-LYV-Ahxh-Ac[C14]
  Kcat/Km: > 500000 M⁻¹ s⁻¹
Ac-PLG˜LYQ-Ahxh-Ac[C14]
  Kcat/Km: 658000 M⁻¹ s⁻¹
Ac-PLG˜LWA-Ahxh-Ac[C14]
  Kcat/Km: > 750000 M⁻¹ s⁻¹
[1]
  Kcat/Km: 61700 M⁻¹ s⁻¹
[2]
  Kcat/Km: 396000 M⁻¹ s⁻¹
[3]
  Kcat/Km: 0 M⁻¹ s⁻¹
Ac-PLG˜LRL-Ahxh-Hynic
  Kcat/Km: 167000 M⁻¹ s⁻¹
[4]
  Kcat/Km: 38300 M⁻¹ s⁻¹
[5]
  Kcat/Km: 271000 M⁻¹ s⁻¹
[6]
  Kcat/Km: 475000 M⁻¹ s⁻¹
[7]
  Kcat/Km: 190000 M⁻¹ s⁻¹
Ac-VRW˜LLA-Ahxh-Hynic
  Kcat/Km: 72200 M⁻¹ s⁻¹
[8]
  Kcat/Km: 201000 M⁻¹ s⁻¹
[9]
  Kcat/Km: 83200 M⁻¹ s⁻¹
[10]
  Kcat/Km: 246000 M⁻¹ s⁻¹
[11]
  Kcat/Km: 77800 M⁻¹ s⁻¹
[12]
  Kcat/Km: 213000 M⁻¹ s⁻¹
Ac-PLG˜LYL-Ahxh-Hynic
  Kcat/Km: 95000 M⁻¹ s⁻¹
[13]
  Kcat/Km: 162000 M⁻¹ s⁻¹
[14]
  Kcat/Km: 195000 M⁻¹ s⁻¹
Ac-PRR˜Cha-TA-Ambh-Hynic
  Kcat/Km: 1580 M⁻¹ s⁻¹
[15]
  Kcat/Km: 1740 M⁻¹ s⁻¹
Ac-VRW˜LTA-Ahxh-Hynic
  Kcat/Km: 29900 M⁻¹ s⁻¹
Ac-PRG˜LLT-Ahxh-Hynic
  Kcat/Km: 73300 M⁻¹ s⁻¹
[16]
  Kcat/Km: > 250000 M⁻¹ s⁻¹
Ac-PLG˜LL-Ahxh-Hynic
  Kcat/Km: 218000 M⁻¹ s⁻¹
[17]
  Kcat/Km: 34000 M⁻¹ s⁻¹
[18]
  Kcat/Km: 103000 M⁻¹ s⁻¹
[19]
  Kcat/Km: 22100 M⁻¹ s⁻¹
[20]
  Kcat/Km: > 500000 M⁻¹ s⁻¹
Ac-PLG˜LYT-Ahxh-Ac[C14]
  Kcat/Km: > 500000 M⁻¹ s⁻¹
Ac-PHG˜Hphe-L-Ahxh-Hynic
  Kcat/Km: 4430 M⁻¹ s⁻¹
Ac-PLG˜LL-Ahxh-Ac[C14]
  Kcat/Km: 134000 M⁻¹ s⁻¹
[21]
  Kcat/Km: 9340 M⁻¹ s⁻¹
Ac-LRY˜Cha-TA-Ahxh-Hynic
  Kcat/Km: 811 M⁻¹ s⁻¹
Ac-PLG˜LYT-Ahxh-Hynic
  Kcat/Km: 223000 M⁻¹ s⁻¹
[22]
  Kcat/Km: > 500000 M⁻¹ s⁻¹
[23]
  Kcat/Km: 20600 M⁻¹ s⁻¹
Ac-POG˜Hphe-L-Hynic
  Kcat/Km: 4450 M⁻¹ s⁻¹
Ac-PRQ˜IT-Ahxh-Hynic
  Kcat/Km: 1700 M⁻¹ s⁻¹
[24]
  Kcat/Km: 264000 M⁻¹ s⁻¹
Ac-POG˜Hphe-L-Ambh-Hynic
  Kcat/Km: 22000 M⁻¹ s⁻¹
[25]
  Kcat/Km: > 500000 M⁻¹ s⁻¹
[26]
  Kcat/Km: > 500000 M⁻¹ s⁻¹
[27]
  Kcat/Km: 1990 M⁻¹ s⁻¹
Suc-PLG˜LYT-Ahxh-Hynic
  Kcat/Km: 81000 M⁻¹ s⁻¹
[28]
  Kcat/Km: 84800 M⁻¹ s⁻¹
Ac-PLG˜LR-Ahxh-Hynic
  Kcat/Km: 143000 M⁻¹ s⁻¹
[29]
  Kcat/Km: > 500000 M⁻¹ s⁻¹
[30]
  Kcat/Km: 180000 M⁻¹ s⁻¹
[31]
  Kcat/Km: 772 M⁻¹ s⁻¹
